This test concerns the target PvdJ-eGFP (Pseudomonas aeruginosa PAO1). The test can be described thus: FRET or BRET.

B1: PvdA-mCherry (enzyme)
chain: MTQATATAVVHDLIGVGFGPSNIALAIALQERAQAQGALEVLFLDKQGDYRWHGNTLVSQSELQISFLKDLVSLRNPTSPYSFVNYLHKHDRLVDFINLGTFYPCRMEFNDYLRWVASHFQEQSRYGEEVLRIEPMLSAGQVEALRVISRNADGEELVRTTRALVVSPGGTPRIPQVFRALKGDGRVFHHSQYLEHMAKQPCSSGKPMKIAIIGGGQSAAEAFIDLNDSYPSVQADMILRASALKPADDSPFVNEVFAPKFTDLIYSREHAERERLLREYHNTNYSVVDTDLIERIYGVFYRQKVSGIPRHAFRCMTTVERATATAQGIELALRDAGSGELSVETYDAVILATGYERQLHRQLLEPLAEYLGDHEIGRDYRLQTDERCKVAIYAQGFSQASHGLSDTLLSVLPVRAEEISGSLYQHLKPGTAARALHEHALAS
On to B1, for which the shortening of the donor fluorescence lifetime against PvdJ-eGFP alone is 10 to 15%.

Values taken from publication doi:10.1101/438713.
